Results from patent US20100061979A1.

Key:
FGF-2 [1] = molecular target: FGF-2 (UniProt P09038); experiment: BIAcore, two-state reaction with conformation change model
FGF-2 [2] = molecular target: FGF-2 (UniProt P09038); experiment: BIAcore

UniProt P09038, sequence (P09038 143-288 limits assumed): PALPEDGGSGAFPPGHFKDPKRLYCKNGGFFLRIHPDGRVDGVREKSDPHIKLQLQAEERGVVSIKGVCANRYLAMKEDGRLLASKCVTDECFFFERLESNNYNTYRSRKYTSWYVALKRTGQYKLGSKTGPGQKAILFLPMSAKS

Kd (FGF-2 [1]): 1.19 nM
Kd (FGF-2 [2]): 1.19 nM
Substance: sFGFR2-Fc variant 4493 (no Ig-like domain 1) (from UniProt P21802 126-377) (Fc fusion)
